“And” between values parts separate entries of the source, which are not always exact repeats. Identical values can stand only once.
Assays:
Test in all cases: periplasmic extract ELISA, control
[1] = target: recombinant human Aggrecan G1-IGD-G2 (human) (UniProt P16112)
[2] = target: recombinant dog Aggrecan G1-IGD-G2 (dog) (UniProt Q28343)
[3] = target: recombinant rat Aggrecan G1-IGD-G2 (rat) (UniProt P07897)
[4] = target: recombinant cynomolgus Aggrecan G1-IGD-G2 (cynomolgus)
[5] = target: recombinant bovine Aggrecan G1-IGD-G2 (bovine) (UniProt P13608)

OD 450 nm [1]: 0.05 OD 450 nm | OD 450 nm [2]: 0.06 OD 450 nm | OD 450 nm [3]: 0.06 OD 450 nm | OD 450 nm [4]: 0.06 OD 450 nm and 0.05 OD 450 nm | OD 450 nm [5]: 0.05 OD 450 nm and 0.06 OD 450 nm
Substance: cAbLys3 (VHH)

Reference: patent publication US20200140532A1
